# Test results taken from US20200338209A1, “ANTI-B7-H3 ANTIBODIES AND ANTIBODY DRUG CONJUGATES” (AbbVie Inc., priority 2016, published 2020).
# T1: human B7-H3 (4Ig-B7-H3 variant) (Homo sapiens, UniProt Q5ZPR3)
# T1 construct: His tag (6xHis) (C)
# T1 sequence (Q5ZPR3 with tags, fused parts or gaps): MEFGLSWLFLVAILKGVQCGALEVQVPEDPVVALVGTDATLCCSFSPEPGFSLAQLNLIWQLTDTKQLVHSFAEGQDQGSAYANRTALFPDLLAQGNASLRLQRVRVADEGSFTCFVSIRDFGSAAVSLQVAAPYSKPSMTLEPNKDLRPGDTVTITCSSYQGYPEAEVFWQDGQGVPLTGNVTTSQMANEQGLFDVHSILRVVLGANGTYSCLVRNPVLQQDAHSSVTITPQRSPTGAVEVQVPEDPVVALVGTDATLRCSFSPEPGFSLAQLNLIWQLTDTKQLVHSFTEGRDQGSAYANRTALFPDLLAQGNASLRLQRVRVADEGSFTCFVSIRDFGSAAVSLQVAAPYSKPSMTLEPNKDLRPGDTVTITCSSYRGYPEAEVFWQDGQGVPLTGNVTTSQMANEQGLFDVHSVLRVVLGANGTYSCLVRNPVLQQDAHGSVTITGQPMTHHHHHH
# B1: Ab17: mouse hybridoma derived anti-B7-H3 monoclonal antibodies (mAbs) (antibody, V domains shown)
# VH: EVKLVESGGGLVQPGGSLKLSCAASGFTFSSYIMSWVRQTPEKRLEWVASIVSSNITYYPDSMKGRFTISRDNARNILYLQMSSLKSEDTAMYYCARSGTRAWFAYWGQGTLVTVSA
# VL: DIVLTQSPASLAVSLGQRATISCRASKSVSTSAYSYMHWYQQKPGQPPKLLIYLASNLESGVPARFSGSGSGTDFTLNIHPVEEEDAATYYCQHSRELPYTFGGGTKLEIK
# B2: Ab7: mouse hybridoma derived anti-B7-H3 monoclonal antibodies (mAbs) (antibody, V domains shown)
# VH: EVQLVESGENLVKPGGSLKLSCAASGFSFRGYGMSWVRQTPDKRLEWVAAISTGGNYTYYPDSVQGRFTISRDNANNTLYLQMSSLKSEDTAMYYCARRGGNYAGFAYWGQGTLVTVSA
# VL: DIQMTQSPASLSVSVGETVTITCRPSENIYSNLAWYQQKQGKSPQLLVYAATNLADGVPSRFSGSGSGTQYSLKINSLQSEDFGTYYCQHFWGTPFTFGSGTKLEIK
# B3: huAb3v4-CZ (conjugate)
# VH: EVQLVQSGAEVKKPGSSVKVSCKASGYTFSSYWMHWVRQAPGQGLEWMGLIHPDSGSTNYNEMFKNRVTITADKSTSTAYMELSSLRSEDTAVYYCARGGRLYFDYWGQGTTVTVSS
# VL: DVVMTQSPLSLPVTPGEPASISCRSSQSLVHSNGDTYLRWYLQKPGQSPQLLIYKVSNRFSGVPDRFSGSGSGTDFTLKISRVEAEDVGVYYCSQSTHVPYTFGGGTKVEIK
# modifications: drug conjugate CZ; Synthetic huAb3VH.1, huAb3v1, and huAb3v4 VH amino acid sequence; Synthetic huAb3VL.1b, huAb3v4, huAb3v5, and huAb3v6 VL amino acid sequence
# B4: Ab6: mouse hybridoma derived anti-B7-H3 monoclonal antibodies (mAbs) (antibody, V domains shown)
# VH: QVQLQQSGAELMKPGASVKISCKATGYTFSRYWIEWVKQRPGHGLEWIGEILPGSGSTNYNEKFKGKATFTADTSSNTAYMQVSSLTSEDSAVHYCARRGYGYVPYALDYWGQGTSVTVSS
# VL: EIQMTQTTSSLSASLGDRVTISCRASQDISNSLNWYQQKPDGTVNLLIYYTSRLYSGVPSRFSGSGSGTDYSLTISNLEQEDIATYFCQQGNTLPYTFGGGTKLEIK
# Columns and labels:
# [1] = target: T1, human B7-H3 (4Ig-B7-H3 variant); experiment: Biacore T200 SPR binding kinetics, mAb capture, soluble ECD of human B7-H3; details: 1:1 binding model
# Description: (§1) The binding affinity of the purified anti-B7-H3 monoclonal antibodies was determined by surface […]. […] The binding kinetics were derived from SPR measurements using a Biacore T200 instrument and a mAb capture approach (as described in the materials and methods below).
# (§2) Biacore T200 SPR instruments were used to measure the binding kinetics of human B7-H3 (4Ig-B7-H3 variant) (analyte) binding to various mAbs (ligands). The assay format was Fc-based capture via immobilized anti-mouse (Fc) (Pierce 31170) or immobilized anti-human (Fc) (Pierce 31125). A standard amine coupling protocol was employed to immobilize the capture reagents via primary amines to the carboxy-methyl (CM) dextran surface of CM5 sensorchips (Biacore); capture antibodies were coupled to a level of approximately 5000RU. For binding kinetic measurements the assay buffer was HBS-EP+ (Biacore): 10 mM Hepes, pH7.4, 150 mM NaCl, 3 mM EDTA, 0.05% polysorbate 20. During the assay, all measurements were referenced against the capture surface alone. Each assay cycle consisted of the following steps: 1) Capture of ligand to approximately 50RU; 2) Analyte injection over both reference and test surface, 240 μL at 80 μL/min, after which the dissociation was monitored for 900 seconds at 80 μL/min; 3) Regeneration of capture surface with low pH glycine. For kinetic determinations analyte injections were 3-point, 9-fold dilution series of 900 nM, 100 nM and 11.11 nM, buffer only injections were included for secondary referencing. Data were processed and fit to a 1:1 binding model using Biacore T200 Evaluation Software to determine the binding kinetic rate constants, ka (on-rate) and kd (off-rate), and the equilibrium dissociation constant (affinity, KD).
# cyno B7-H3 = experiment: Biacore T200 SPR binding kinetics, mAb capture, soluble ECD of cyno B7-H3; design: species or system cynomolgus monkey; details: 1:1 binding model
# Description: [The source words this procedure for another species and reports this species under the same test.] as §1, §2
# [2] = Percentage aggregation of ADCs by size exclusion chromatography (SEC); type: physicochemical; details: humanized Ab3-CZ variants, Table 14
# Description: The DAR and percentage aggregation of ADCs synthesized were determined by LC-MS and size exclusion chromatography (SEC), respectively.
# Size exclusion chromatography was performed using a Shodex KW802.5 column in 0.2 M potassium phosphate pH 6.2 with 0.25 mM potassium chloride and 15% IPA at a flow rate of 0.75 ml/min. The peak area absorbance at 280 nm was determined for each of the high molecular weight and monomeric eluents by integration of the area under the curve. The % aggregate fraction of the conjugate sample was determined by dividing the peak area absorbance at 280 nm for the high molecular weight eluent by the sum of the peak area absorbances at […] of the high molecular weight and monomeric eluents multiplied by 100%.
# cyno B7-H3, sequence (as listed by the source): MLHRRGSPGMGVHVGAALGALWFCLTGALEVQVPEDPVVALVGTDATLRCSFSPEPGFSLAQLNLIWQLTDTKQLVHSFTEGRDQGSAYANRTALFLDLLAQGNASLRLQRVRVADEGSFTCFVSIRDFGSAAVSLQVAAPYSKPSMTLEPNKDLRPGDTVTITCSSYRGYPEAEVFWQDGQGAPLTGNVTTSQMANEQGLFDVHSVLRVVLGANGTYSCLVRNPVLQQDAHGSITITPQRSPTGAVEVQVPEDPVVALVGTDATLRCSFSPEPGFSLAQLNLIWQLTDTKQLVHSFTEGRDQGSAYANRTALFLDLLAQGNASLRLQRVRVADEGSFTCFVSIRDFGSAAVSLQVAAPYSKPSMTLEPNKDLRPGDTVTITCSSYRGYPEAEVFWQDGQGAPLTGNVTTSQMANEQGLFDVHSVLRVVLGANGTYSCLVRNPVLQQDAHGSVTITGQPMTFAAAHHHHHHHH
Molecule,ka (1/Ms) huB7-H3 [1] [M⁻¹ s⁻¹],kd (1/s) huB7-H3 [1] [s⁻¹],ka (1/Ms) cynoB7-H3 (cyno B7-H3) [M⁻¹ s⁻¹],kd (1/s) cynoB7-H3 (cyno B7-H3) [s⁻¹],KD (M) huB7-H3 [1],KD (M) cynoB7-H3 (cyno B7-H3),% agg by SEC [2] [%]
B1,540000,1.9e-05,510000,1e-05,,,
B2,,,,,little observable binding,little observable binding,
B3,,,,,,,3.1
B4,12000,0.01,28000,0.012,,,
